The results in this text go back to patent US20100009439A1.

What all share (settings): remark: other sources report otherwise
Experiment [1] deals with T1, purified full-length human IGF-I receptor (human), P08069. The experiment can be described thus: ELISA, hybridoma supernatant on coated purified human IGF-I receptor. Background: In an ELISA, binding on a coated surface is turned into a signal by an enzyme label.
Experiment [2] addresses T1, purified full-length human IGF-I …. Put plainly: ELISA titration on biotinylated human IGF-I receptor captured on streptavidin; non-linear regression for one-site binding.
For experiment [3] the target is unchanged. The experiment can be described thus: ELISA titration on human IGF-I receptor, similar to that of the whole antibody.

B1: murine EM164 antibody (antibody, V domains shown)
VH: QVQLQQSGAELVKPGASVKLSCKASGYTFTSYWMHWVKQRPGQGLEWIGEINPSNGRTNYNEKFKRKATLTVDKSSSTAYMQLSSLTSEDSAVYYFARGRPDYYGSSKWYFDVWGAGTTVTVS
VL: DVLMTQTPLSLPVSLGDQASISCRSSQSIVHSNVNTYLEWYLQKPGQSPKLLIYKVSNRFSGVPDRFSGSGSGTDFTLRISRVEAEDLGIYYCFQGSHVPPTFGGGTKLEIKR
modifications: here or on the partner: biotinylated with PEO-maleimide-biotin in the captured format
The Kd is the constant that tells how readily two partners part at equilibrium. Low readings indicate higher affinity, high ones lower affinity. B1 came in with an absorbance units (405 nm) (absorbance units) in experiment [1] of 1.2. In addition, the Kd in experiment [2] was found to be 0.1 nM.

B2: Fab fragment of EM164 antibody (Fab, V domains shown)
VH: B1 VH
VL: B1 VL
modifications: here or on the partner: biotinylated with PEO-maleimide-biotin in the captured format
Regarding B2, the Kd in experiment [3] amounted to 0.3 nM.
